T1: TWINKLE (UniProt Q96RR1 32-684)
T1 sequence: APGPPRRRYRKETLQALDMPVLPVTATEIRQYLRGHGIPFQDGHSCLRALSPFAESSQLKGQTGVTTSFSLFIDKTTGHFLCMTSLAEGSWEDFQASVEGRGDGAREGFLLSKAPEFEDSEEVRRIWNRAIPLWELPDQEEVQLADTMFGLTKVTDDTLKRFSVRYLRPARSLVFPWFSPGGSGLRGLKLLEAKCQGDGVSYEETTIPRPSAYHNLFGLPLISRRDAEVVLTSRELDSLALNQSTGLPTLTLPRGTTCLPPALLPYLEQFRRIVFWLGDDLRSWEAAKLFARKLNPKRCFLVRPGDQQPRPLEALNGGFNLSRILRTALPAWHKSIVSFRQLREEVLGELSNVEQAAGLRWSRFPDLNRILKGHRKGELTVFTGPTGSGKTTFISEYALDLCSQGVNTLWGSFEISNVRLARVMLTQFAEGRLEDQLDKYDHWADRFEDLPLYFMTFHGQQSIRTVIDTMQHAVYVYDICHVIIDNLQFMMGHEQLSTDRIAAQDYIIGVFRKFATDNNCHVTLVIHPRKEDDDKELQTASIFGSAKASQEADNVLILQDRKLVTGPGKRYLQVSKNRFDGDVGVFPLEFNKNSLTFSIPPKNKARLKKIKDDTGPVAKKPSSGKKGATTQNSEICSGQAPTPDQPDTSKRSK

B1: closed circular ssDNA (100 nt) (ssDNA)
DNA: GAGGGGTATGTTTTTTTTTTTTTTTTTTTTTTTTTTTTTTTTTTTTTTTTTTTTTTTTTTTTTTTTTTTTTTTTTTTTTTTTTTTTTTTTCATACCCCTAT
B2: linear dsDNA (100 bp) (dsDNA)
DNA 1: GATTTTTTTTTTTTTTTTTTTTTTTTTTTTTTTTTTTTTCATACCCCTATGAGGGGTATGTTTTTTTTTTTTTTTTTTTTTTTTTTTTTTTTTTTTTTAT
DNA 2: ATAAAAAAAAAAAAAAAAAAAAAAAAAAAAAAAAAAAAAACATACCCCTCATAGGGGTATGAAAAAAAAAAAAAAAAAAAAAAAAAAAAAAAAAAAAATC
B3: linear ssDNA (100 nt) (ssDNA)
DNA: B2 DNA 1

Biological target: T1, TWINKLE
Assay: EMSA

Binding result, binds:
B1, B2, B3
